In US20200264182A1, “METHOD FOR DETECTING PROSTATE CANCER” (J-OIL MILLS, INC., priority 2017, published 2020):

What was measured:
[1] = Binding to sugar chains, summary of Tables 2 to 5
Procedure: (§1) Details of the FAC method are described in Patent Document 2 filed by some of the present applicants, for example.
(§2) Binding constants (at 25° C.) of PhoSL, SRL, NSL and LSL belonging to the fucose α1→6 specific lectin for various sugar chains are shown in Tables 2 to 5.
The AAL and AOL bind to the fucose α1→6 sugar chains (sugar chains No. 015, 201 to 203, and 401 to 418), as well as to the glycolipid-type sugar chain excluding the fucose α1→6 (sugar chains No. 718, 722, 723, 727, 909, 910 and 933). The LCL and PSL bind to the fucose α1→6 sugar chain, as well as to sugar chain excluding the α1→6 fucose (sugar chains No. 003, and 005 to 014).
Furthermore, the binding constant of the fucose α1→6 specific lectin is not decreased even if a sialic acid is added to the fucose α1→6 sugar chain (sugar chains No. 601 and 602). In addition, the fucose α1→6 specific lectin also strongly binds to the triple-strand (sugar chains No. 407 to 413) and the four-strand (sugar chains No. 418) of the fucose uα1→6 sugar chain.

[2] = FAC binding constant (Table 5 entry); conditions: Table 5: sugar chain having no fucose; at 25° C.
Procedure: as §1, §2

FAC binding constant = conditions: at 25° C.
Procedure: as §1, §2

[3] = sugar chain having fucose other than α1→6 fucose

B1: LCL: Lens culinaris lectin, affinity for fucose α1→6 but not specific (protein)
chain 1: TETTSFSITKFSPDQKNLIFQGDGYTTKGKLTLTKAVKSTVGRALYSTPIHIWDRDTGNVANFVTSFTFVIDAPSSYNVADEFTFFIAPVDTKPQTGGGYLGVFNSKEYDKTSQTVAVEFDTFYNAAWDPSNKERHIGIDVNSIKSVNTKSWNLQNGERANVVIAFNAATNVLTVTLTYP
chain 2: VTSYTLNEVVPLKDVVPEWVRIGFSATTGAEFAAHEVHSWSFHSELGGTSSS
30000 M⁻¹: Binding constant for sugar chain No. 601 (FAC binding constant; sugar chain having α1→6 fucose)
bind: binding to sugar chain excluding the α1→6 fucose (in words) ([1]; sugar chains No. 003, and 005 to 014 for LCL and PSL) | binding to the fucose α1→6 sugar chains (in words) ([1]; sugar chains No. 015, 201 to 203, and 401 to 418)
1000 M⁻¹: Binding constant for sugar chain No. 407 (FAC binding constant; sugar chain having α1→6 fucose)
110000 M⁻¹: Binding constant for sugar chain No. 202 (FAC binding constant; sugar chain having α1→6 fucose)
14000 M⁻¹: Binding constant for sugar chain No. 006 (FAC binding constant; sugar chain having no fucose) | Binding constant for sugar chain No. 011 (FAC binding constant; sugar chain having no fucose)
25000 M⁻¹: Binding constant for sugar chain No. 012 (FAC binding constant; sugar chain having no fucose)
24000 M⁻¹: Binding constant for sugar chain No. 602 (FAC binding constant; sugar chain having α1→6 fucose)
13000 M⁻¹: Binding constant for sugar chain No. 010 (FAC binding constant; sugar chain having no fucose)
47000 M⁻¹: Binding constant for sugar chain No. 405 (FAC binding constant; sugar chain having α1→6 fucose)
730000 M⁻¹: Binding constant for sugar chain No. 203 (FAC binding constant; sugar chain having α1→6 fucose)
99000 M⁻¹: Binding constant for sugar chain No. 403 (FAC binding constant; sugar chain having α1→6 fucose)
58000 M⁻¹: Binding constant for sugar chain No. 404 (FAC binding constant; sugar chain having α1→6 fucose)
42000 M⁻¹: Binding constant for sugar chain No. 401 (FAC binding constant; sugar chain having α1→6 fucose)
18000 M⁻¹: Binding constant for sugar chain No. 008 (FAC binding constant; sugar chain having no fucose) | Binding constant for sugar chain No. 009 (FAC binding constant; sugar chain having no fucose) | Binding constant for sugar chain No. 406 (FAC binding constant; sugar chain having α1→6 fucose)
17000 M⁻¹: Binding constant for sugar chain No. 013 (FAC binding constant; sugar chain having no fucose) | Binding constant for sugar chain No. 014 (FAC binding constant; sugar chain having no fucose)
7200 M⁻¹: Binding constant for sugar chain No. 003 (FAC binding constant; sugar chain having no fucose)
56000 M⁻¹: Binding constant for sugar chain No. 015 (FAC binding constant; sugar chain having α1→6 fucose)
59000 M⁻¹: Binding constant for sugar chain No. 402 (FAC binding constant; sugar chain having α1→6 fucose)
<1000 M⁻¹: Binding constant for sugar chain No. 728 [2] | Binding constant for sugar chain No. 728 (FAC binding constant; Table 3: sugar chain having fucose other than α1→6 fucose) | Binding constant for sugar chain No. 419 (FAC binding constant; [3]) | Binding constant for sugar chain No. 420 (FAC binding constant; [3]) | Binding constant for sugar chain No. 718 (FAC binding constant; [3]) | Binding constant for sugar chain No. 719 (FAC binding constant; [3]) | Binding constant for sugar chain No. 720 (FAC binding constant; [3]) | Binding constant for sugar chain No. 721 (FAC binding constant; [3]) | Binding constant for sugar chain No. 722 (FAC binding constant; [3]) | Binding constant for sugar chain No. 723 (FAC binding constant; [3]) | Binding constant for sugar chain No. 726 (FAC binding constant; [3]) | Binding constant for sugar chain No. 727 (FAC binding constant; [3]) | Binding constant for sugar chain No. 729 (FAC binding constant; [3]) | Binding constant for sugar chain No. 730 (FAC binding constant; [3]) | Binding constant for sugar chain No. 731 (FAC binding constant; [3]) | Binding constant for sugar chain No. 739 (FAC binding constant; [3]) | Binding constant for sugar chain No. 909 (FAC binding constant; [3]) | Binding constant for sugar chain No. 910 (FAC binding constant; [3]) | Binding constant for sugar chain No. 931 (FAC binding constant; [3]) | Binding constant for sugar chain No. 932 (FAC binding constant; [3]) | Binding constant for sugar chain No. 933 (FAC binding constant; [3]) | Binding constant for sugar chain No. 001 (FAC binding constant; sugar chain having no fucose) | Binding constant for sugar chain No. 002 (FAC binding constant; sugar chain having no fucose) | Binding constant for sugar chain No. 004 (FAC binding constant; sugar chain having no fucose) | Binding constant for sugar chain No. 005 (FAC binding constant; sugar chain having no fucose) | Binding constant for sugar chain No. 007 (FAC binding constant; sugar chain having no fucose) | Binding constant for sugar chain No. 101 (FAC binding constant; sugar chain having no fucose) | Binding constant for sugar chain No. 103 (FAC binding constant; sugar chain having no fucose) | Binding constant for sugar chain No. 104 (FAC binding constant; sugar chain having no fucose) | Binding constant for sugar chain No. 105 (FAC binding constant; sugar chain having no fucose) | Binding constant for sugar chain No. 107 (FAC binding constant; sugar chain having no fucose) | Binding constant for sugar chain No. 108 (FAC binding constant; sugar chain having no fucose) | Binding constant for sugar chain No. 301 (FAC binding constant; sugar chain having no fucose) | Binding constant for sugar chain No. 304 (FAC binding constant; sugar chain having no fucose) | Binding constant for sugar chain No. 305 (FAC binding constant; sugar chain having no fucose) | Binding constant for sugar chain No. 307 (FAC binding constant; sugar chain having no fucose) | Binding constant for sugar chain No. 308 (FAC binding constant; sugar chain having no fucose) | Binding constant for sugar chain No. 313 (FAC binding constant; sugar chain having no fucose) | Binding constant for sugar chain No. 314 (FAC binding constant; sugar chain having no fucose) | Binding constant for sugar chain No. 323 (FAC binding constant; sugar chain having no fucose) | Binding constant for sugar chain No. 501 (FAC binding constant; sugar chain having no fucose) | Binding constant for sugar chain No. 502 (FAC binding constant; sugar chain having no fucose) | Binding constant for sugar chain No. 503 (FAC binding constant; sugar chain having no fucose) | Binding constant for sugar chain No. 504 (FAC binding constant; sugar chain having no fucose) | Binding constant for sugar chain No. 701 (FAC binding constant; sugar chain having no fucose) | Binding constant for sugar chain No. 702 (FAC binding constant; sugar chain having no fucose) | Binding constant for sugar chain No. 703 (FAC binding constant; sugar chain having no fucose) | Binding constant for sugar chain No. 704 (FAC binding constant; sugar chain having no fucose) | Binding constant for sugar chain No. 705 (FAC binding constant; sugar chain having no fucose) | Binding constant for sugar chain No. 706 (FAC binding constant; sugar chain having no fucose) | Binding constant for sugar chain No. 707 (FAC binding constant; sugar chain having no fucose) | Binding constant for sugar chain No. 708 (FAC binding constant; sugar chain having no fucose) | Binding constant for sugar chain No. 709 (FAC binding constant; sugar chain having no fucose) | Binding constant for sugar chain No. 710 (FAC binding constant; sugar chain having no fucose) | Binding constant for sugar chain No. 711 (FAC binding constant; sugar chain having no fucose) | Binding constant for sugar chain No. 712 (FAC binding constant; sugar chain having no fucose) | Binding constant for sugar chain No. 713 (FAC binding constant; sugar chain having no fucose) | Binding constant for sugar chain No. 715 (FAC binding constant; sugar chain having no fucose) | Binding constant for sugar chain No. 716 (FAC binding constant; sugar chain having no fucose) | Binding constant for sugar chain No. 717 (FAC binding constant; sugar chain having no fucose) | Binding constant for sugar chain No. 724 (FAC binding constant; sugar chain having no fucose) | Binding constant for sugar chain No. 725 (FAC binding constant; sugar chain having no fucose) | Binding constant for sugar chain No. 732 (FAC binding constant; sugar chain having no fucose) | Binding constant for sugar chain No. 733 (FAC binding constant; sugar chain having no fucose) | Binding constant for sugar chain No. 734 (FAC binding constant; sugar chain having no fucose) | Binding constant for sugar chain No. 735 (FAC binding constant; sugar chain having no fucose) | Binding constant for sugar chain No. 736 (FAC binding constant; sugar chain having no fucose) | Binding constant for sugar chain No. 737 (FAC binding constant; sugar chain having no fucose) | Binding constant for sugar chain No. 738 (FAC binding constant; sugar chain having no fucose) | Binding constant for sugar chain No. 901 (FAC binding constant; sugar chain having no fucose) | Binding constant for sugar chain No. 902 (FAC binding constant; sugar chain having no fucose) | Binding constant for sugar chain No. 903 (FAC binding constant; sugar chain having no fucose) | Binding constant for sugar chain No. 905 (FAC binding constant; sugar chain having no fucose) | Binding constant for sugar chain No. 906 (FAC binding constant; sugar chain having no fucose) | Binding constant for sugar chain No. 907 (FAC binding constant; sugar chain having no fucose) | Binding constant for sugar chain No. 410 (FAC binding constant; sugar chain having α1→6 fucose) | Binding constant for sugar chain No. 413 (FAC binding constant; sugar chain having α1→6 fucose) | Binding constant for sugar chain No. 418 (FAC binding constant; sugar chain having α1→6 fucose)
500000 M⁻¹: Binding constant for sugar chain No. 201 (FAC binding constant; sugar chain having α1→6 fucose)
